Data as given in US11110158B2, “Prostate-associated antigens and vaccine-based immunotherapy regimens” (Pfizer Inc., priority 2012, dated 2021).

Test system: PSA
Experiment: Sandwich ELISA, anti-PSA antibody response in vaccinated mice
Format: in vivo, mouse
Details: Table 15; for # of positive: mice with anti-PSA antibody response / mice tested

Row | Molecule | # of positive | ELISA (OD = 1.0) Average (SD) (anti-PSA antibody titer at OD of 1.0)
1 | PSA secreted: native full length human PSA (amino acids 1-261), SEQ ID NO: 15 (protein, listed as Homo sapiens) MASWVPVVFLTLSVTWIGAAPLILSRIVGGWECEKHSQPWQVLVASRGRAVCGGVLVHPQWVLTAAHCIRNKSVILLGRHSLFHPEDTGQVFQVSHSFPHPLYDMSLLKNRFLRPGDDSSHDLMLLRLSEPAELTDAVKVMDLPTQEPALGTTCYASGWGSIEPEEFLTPKKLQCVDLHVISNDVCAQVHPQKVTKFMLCAGRWTGGKSTCSGDSGGPLVCNGVLQGITSWGSEPCALPERPSLYTKVVHYRKWIKDTIVANP | 2/6 | 
2 | PSA membrane-bound: PSA amino acids 25-261 linked to human PSMA transmembrane domain (aa 15-54), SEQ ID NO: 19 (protein) MASARRPRWLCAGALVLAGGFFLLGFLFGWFIKSSNEATNITPGIVGGWECEKHSQPWQVLVASRGRAVCGGVLVHPQWVLTAAHCIRNKSVILLGRHSLFHPEDTGQVFQVSHSFPHPLYDMSLLKNRFLRPGDDSSHDLMLLRLSEPAELTDAVKVMDLPTQEPALGTTCYASGWGSIEPEEFLTPKKLQCVDLHVISNDVCAQVHPQKVTKFMLCAGRWTGGKSTCSGDSGGPLVCNGVLQGITSWGSEPCALPERPSLYTKVVHYRKWIKDTIVANP | 6/6 | 4838 (835)
